The supplement of paper PMC9170038

Tested on: MS2 coat protein
Experiment: apparent KD of MS2 coat protein; designed switch direction (-1 OFF switch, 1 ON switch): -1; higher = weaker reporter binding
Method in brief: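 The reported apparent KD is a per-design median over clusters, from curve fits of normalised cluster fluorescence. Protein titrations used SNAP-549-labelled MS2 coat protein, doubled from 0.7 or 1.5 nM to 3 µM, in Tris-HCl pH 7.5 buffer with KCl, MgCl2, BSA, DTT, tRNA and Tween-20, with no input, 200 uM small-molecule ligand, or an oligonucleotide input. The RNA switches were transcribed on Illumina chips by stalled E. coli RNA polymerase.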

[1] = Eterna round: R95, input ligand: microRNA oligo, concentration not stated
[2] = input ligand: microRNA oligo, concentration not stated
[3] = Eterna round: R95, input ligand: FMN 200 uM
[4] = Eterna round: R95, input ligand: none

| Sequence | apparent KD of MS2 coat protein [1] | apparent KD of MS2 coat protein (input ligand: FMN 200 uM) | apparent KD of MS2 coat protein [2] | apparent KD of MS2 coat protein (input ligand: none) | apparent KD of MS2 coat protein [3] | apparent KD of MS2 coat protein [4] |
| --- | --- | --- | --- | --- | --- | --- |
| AGCAUGCUAGGAUAUACGGGACAUUAGGGUUUGUCGUGUGGACAUGAGGAUCACCCAUGUAGAAGGAGCGUGCA [Mat - Exclusion 2 - Mod of Hyphema - D92] (puzzle: Exclusion 2) | 46.5 nM | – | – | – | – | – |
| GUGUACAGAGGAUAUGCACGAGGAGUUACGAAAGUAACUUCACAUGAGGAUCACCCAUGUAGAAGGCUGUACAC [Dot plot directed v5] (puzzle: Exclusion 2) | 13.9 nM | – | – | – | – | – |
| AGAGAAAAUCUAGGAUAUGUGUAUGCCGCGUGCGCAGAAGGAGACAUGAGGAUCACCCAUGUAAAGAGACAGAAGACGACCAAA [Matt's Exclusion] (Eterna round: R96, puzzle: Exclusion NG 1) | – | 55.7 nM | 38.7 nM | 67.5 nM | – | – |
| CAUGGAUGUGAGCCGCAUUACAUGAGGAUCACCCAUGUCAACAAGCUUUUUGCUUAUCUUACGCGGCGGCAUCAAAA [Enisusti] (puzzle: Sensor v3, turn-off variant 1) | 11.8 nM | – | – | – | 13.4 nM | 9.39 nM |
| UUUUACAGAGGAUAUGCGAAUAAAUAAAACUUUUUUUUUUAACAUGAGGAUCACCCAUGUAGAAGGCUGAUUUU [Ex2 #25] (Eterna round: R97, puzzle: Exclusion 2) | – | 40 nM | – | 48.4 nM | – | – |
| UUAUAUAGUGUGAGGAUAUGCUGGUCCUUGGAUCAGCAGAAGGCACAUGAGGAUCACCCAUGUAGUUUAUUAUU [Mat - Exclusion 4 - JL Mod - D10] (puzzle: Brourd's mod of Exclusion 4) | 24.8 nM | – | – | – | – | – |
| AAUAAUGAGUAGGAUAUCACUAGCGAUAGCUAGUGAGAAGGGCUCACAUGAGGAUCACCCAUGUGUUCCAAUAA [Mod4 Ex6/6-A4 by Brourd] (Eterna round: R97, puzzle: Exclusion 6) | – | 88.1 nM | – | 31.2 nM | – | – |
| AGAUAGUGCUGAGGAUAUCUUAAUAGAAAGAAUAGAGAAGGCGGACAUGAGGAUCACCCAUGUGAGGUCUUGAGACUACAUGGU [Prohibition 36 - Jieux - Exclusion NG 1] (Eterna round: R96, puzzle: Exclusion NG 1) | – | 366 nM | 71.6 nM | 135 nM | – | – |
| GUGUAACUACACGGGCUCAACAUGAGGAUCACCCAUGUCAUACACGCAAGCUUUUUGCUUGUCUUAUCAGUCCGUGA [Rereerdiin] (puzzle: Sensor v3, turn-off variant 1) | 13.4 nM | – | – | – | 13 nM | 11.1 nM |
| AUUAUAUAGGAAGGAUAUAGAAUAUUAUUUUAACAUGAGGAUCACCCAUGUAACCUUAUGUGUAGCUAGAAGGUCCAUUUGUUA [Title] (Eterna round: R96, puzzle: Exclusion NG 2) | – | – | 221 nM | – | – | – |
| UGAUCUAGCGGAGGAUAUACAUGAGGAUCACCCAUGUAGAUAAGUGUACCGUAGUGCACUAUUGUGUAGAAGGCCGCUAGAUCU [JL ENG2 3.64] (Eterna round: R96, puzzle: Exclusion NG 2) | – | 30.5 nM | 9.35 nM | 11.9 nM | – | – |
| GGAGGACGAGCAGGAUAUUUUUACAUGAGGAUCACCCAUGUGUAAUCAGGGUAAUCCUCCACCGAAAAGAAGGGUUCGGAAGAA [Mat - Exclusion NG 2 - Mod of JL - D84] (Eterna round: R96, puzzle: Exclusion NG 2) | – | 18.1 nM | 9.17 nM | 70.6 nM | – | – |
| CAACCGAAUCAGUGAAUGCCGACAUGAGGAUCACCCAUGUGUGAGGAUAUUUUAGUAGAGAACUAAAAGAAGGCACCUGGAAAG [Eternabot solution 20] (Eterna round: R96, puzzle: Exclusion NG 3) | – | 70.2 nM | 22.4 nM | 39.8 nM | – | – |
| ACUCGACAUGAGGAUCACCCAUGUGAGGAUAUGGCCUGUAUGGCGUGAGCUGGCUCAGUCAGAAGGCGCGUGGG [salish99_ex1_r4_047] (Eterna round: R97, puzzle: Exclusion 1) | – | 151 nM | – | 123 nM | – | – |
| CUGAUGUGAGGAUAUGUGAUCUGCCUUCUAUGUAGAUGAUCACAGAAGGCACAUGAGGAUCACCCAUGUAGAUC [Ex4 - 3 - 26] (puzzle: Exclusion 4) | 69.7 nM | – | – | – | – | – |
| GGAGAGGUAGGAUAUCCACUUUAGAACAUGAGGAUCACCCAUGUAGAACCACAUGAAAUGGGAGAAGGACCAGGGA [AK-MS2ROC-r4-exclusion5-3] (Eterna round: R97, puzzle: Exclusion 5) | – | 65.3 nM | – | 56.1 nM | – | – |
| CUUCGACAUGAGGAUCACCCAUGUCAGGAUAUUGUGUAUCGGGUUUUUUACGGUAAGGCAAGAAGGGAUGUGUG [LRO-Excl1-08] (puzzle: Exclusion 1) | 29.9 nM | – | – | – | – | – |
| GCCGGUCAUGUAGGAUAUGGCCGGCGGUGCCGGCCAGAAGGACAUGAGGAUCACCCAUGUGCCGGCCUUUGGCCGGCGCCCGGC (Eterna round: R96, puzzle: Exclusion NG 1) | – | 8.65 nM | 11.2 nM | 18.6 nM | – | – |

| Sequence | apparent KD of MS2 coat protein [1] | apparent KD of MS2 coat protein (input ligand: FMN 200 uM) | apparent KD of MS2 coat protein [2] | apparent KD of MS2 coat protein (input ligand: none) | apparent KD of MS2 coat protein [3] | apparent KD of MS2 coat protein [4] |
| --- | --- | --- | --- | --- | --- | --- |
| AGUUGGCGAGGAUAUACAUGAGGAUCACCCAUGUGAGAGAUACUAGUGAGGUCGAUUAGUAGAAGGCGCUGACA [Mat - Exclusion 3 - Mod of JL D77] (puzzle: Exclusion 3) | 31.6 nM | – | – | – | – | – |
| CCGGAAAUGCAGGAUAUCGUAUCGGAUACGAUACGAGAAGGGUAUACAUGAGGAUCACCCAUGUGUCCUACCGG [Fiskers Ex 6 - 49] (puzzle: Exclusion 6) | 18.3 nM | – | – | – | – | – |
| CCAUGAUAAGGAUAUUGAAGGUUCGACAUGAGGAUCACCCAUGUUAUGUUGGAAAAGGGACAAGAAGGUAUGAAUU [salish99_ex5_r4_220] (Eterna round: R97, puzzle: Exclusion 5) | – | 34.7 nM | – | 35.1 nM | – | – |
| AAUAACAGGCCGAUCCUAAACAUGAGGAUCACCCAUGUGCUCGUCUUGUAAAGUACUAUCACGAAAGUGAUAGUACA [Sensor v3, turn-off variant 1 (MOD of Eli's v1-59 v.2 )] (puzzle: Sensor v3, turn-off variant 1) | 419 nM | – | – | – | 39.9 nM | 31.4 nM |
| GAAAAGGUAGGAUAUACAAAAAAAAAGGGUAGAAAAAAAACACAUGAGGAUCACCCAUGUAGAAGGACCAAAAG [salish99_ex2_r3_057] (puzzle: Exclusion 2) | 37 nM | – | – | – | 83.7 nM | 25.9 nM |
| CUUAAUUGUCAGAUGGGUGACAUGAGGAUCACCCAUGUCACAAGCUUUUUGCUCGUCUUAUAAUUAACCCAUCUGAC [Stov1/11-A4] (Eterna round: R97, puzzle: Sensor, turn-off variant 1) | – | 13.5 nM | – | 13.4 nM | – | – |
| GCCAGAGCAGGAUAUUCAAUGUAUCACAUGAGGAUCACCCAUGUCCAGCGAAAGCUGGAGGGAGAAGGGCUCUGGC [Fiskers Ex 5 - 17] (puzzle: Exclusion 5) | 234 nM | – | – | – | 65.6 nM | 257 nM |
| GGAUGAGGAGUGAGGAUAUCGUGUUCGAAAGAACGUGAGAAGGCACAUGAGGAUCACCCAUGUGAUCCUCAUCG [Omei Ex4B A22] (Eterna round: R97, puzzle: Brourd's mod of Exclusion 4) | – | 365 nM | – | 59.6 nM | – | – |
| AAGGAACAUGAGGAUCACCCAUGUGAGGAUAUGUGAGAAGGAUUUGAGAAGGAGAGGGACAGAAGGCACUAGGA [JR_Exclu1_Sub081] (puzzle: Exclusion 1) | 34.7 nM | – | – | – | – | – |
| UUUUUACAUGAGGAUCACCCAUGUCAGGAUAUCAUUAUAUUUUAUUAUUUUAUUUAUAUGAGAAGGGACUAUUA [My solution] (Eterna round: R96, puzzle: Exclusion 1) | – | 127 nM | 79.2 nM | 105 nM | – | – |
| AUAAUGUAAGGAUAUCAGUCGACUAGCCUCGGCUAGUCGACUGAGAAGGUACAUGAGGAUCACCCAUGUGAAUA [E4/16-A2] (Eterna round: R97, puzzle: Exclusion 4) | – | 228 nM | – | 52.1 nM | – | – |
| AAUUCACAUGAGGAUCACCCAUGUCAGGAUAUGGUUUCACGUUUUUCUUUUCUUGAUUCCAGAAGGGACAGCUA (puzzle: Exclusion 1) | 58.6 nM | – | – | – | – | – |
| CCACGACAUGAGGAUCACCCAUGUGAGGAUAUGACCUGAAAAGCGUGAGCAGUUUGUAUCAGAAGGCGCGUAGG [salish99_ex1_r4_067] (Eterna round: R97, puzzle: Exclusion 1) | – | 35.9 nM | – | 44.2 nM | – | – |
| UACCGGCGGACCGAAGCUUUUUGCUUGUCUUAUACUACGACAUGAGGAUCACCCAUGUGGUGGUGGUCCGUUGUAGU [JL ViennaUCT Bitein mod 3] (puzzle: Sensor v3, turn-off variant 2) | 13.1 nM | – | – | – | 48.3 nM | 52.1 nM |
| CGAGCUGGAGUGAGGAUAUCGUGUUCGAAAGAACGUGAGAAGGCACAUGAGGAUCACCCAUGUGAUUCAGCUCG [Omei Ex4B A4] (Eterna round: R97, puzzle: Brourd's mod of Exclusion 4) | – | 28 nM | – | 20.1 nM | – | – |
| AGUACAAUCACGAAAGUGAUUGUACAAUAAGCUUGUGAAACAUGAGGAUCACCCAUGUCCUCAUAAGCUCGUCUUAU [Mat - Sensor v2 -ver2- JL mod - D69] (Eterna round: R96, puzzle: Sensor v2, turn-off variant 2) | – | 16.1 nM | 416 nM | 18.4 nM | – | – |
| AUUAUAACAUAGGAUAUCGAAUUUAUCAUUUAACGAGAAGGAUGAACAUGAGGAUCACCCAUGUGGUAUCAUGG [Mat - Exclusion 6 - JL Mod - D3] (puzzle: Exclusion 6) | 173 nM | – | – | – | 55 nM | 33.5 nM |
